Read-outs that look alike come from different tables or passages of the source. Each block holds one molecule with its values, some of them ahead of it.
Columns and labels:
[1] = test system: miR-192; test: real time qRT-PCR of endogenous mature miR-192 after MTX treatment; type: cell-based, human
Procedure: Thereafter, the expression of endogenous mature miR-192 was analyzed by real time qRT-PCT analysis using an internal control RNU6B as an internal standard for normalization. The cDNA synthesis was carried out with the High Capacity cDNA synthesis kit (Applied Biosystems) using 10 ng of total RNA as template. The miRNA sequence-specific RT-PCR primers for miR-192 and endogenous control RNU6B were purchased from Ambion. Real-time quantitative reverse transcription-PCR (qRT-PCR) analysis was carried out using Applied Biosystems 7500 Real-Time PCR System. The PCR master mix containing TaqMan 2× Universal PCR Master Mix (No Amperase UNG), 10× TaqMan assay and RT products in 20 μl volume were processed as follows: 95° C. for 10 minutes, and then 95° C. for 15 seconds, 60° C. for 60 seconds for up to 40 cycles (n=3). Signal was collected at the endpoint of every cycle. The gene expression ΔCT values of miRNAs from each sample were calculated by normalizing with internal control RNU6B and relative quantitation values were plotted.

[2] = test system: U-2 OS cells; test: WST-1 chemosensitivity to MTX after transfection; type: cell-based; conditions: for IC50: Homo sapiens, U2OS, 72 h
[3] = test system: conserved p53-binding promoter of miR-192; test: luciferase reporter assay of p53-binding promoter of miR-192; type: cell-based, human; conditions: HCT (wt-p53) cells, 5 μmol/L for 24 hours
Excerpt: Luciferase reporter assay was used to determine the transcriptional activation of conserved p53-binding promoter of miR-192. pGL3-Basic promoterless luciferase reporter plasmid (Promega) was used in this study. Double-stranded DNA oligonucleotides of conserved p53-binding sequence of miR-192 was synthesized and annealed and cloned upstream of firefly luciferase in the pGL3-Basic plasmid (miR-192-pGL3). […] Control vector and miR-192-pGL3 vector were transfected into both HCT-116 (wt-p53) and HCT-116 (null-p53) cells. To further induce p53 expression, transfected HCT-116 (wt-p53) and HCT-116 (null-p53) cells were also treated with 5 μmol/L 5-fluorouracil for 24 hours. The promoter activity of each construct was quantified by dual luciferase assay (Promega) 24 hours after transfection.

[4] = test system: HCT-116(wt-p53) cells; test: WST-1 chemosensitivity to TDX after transfection; type: cell-based; conditions: Homo sapiens, HCT-116, 72 h
Procedure: HCT-116 (wt-p53) cells were plated in 96-well plates at 1×10^3 cells/well in triplicate and were transfected with miR-215 precursor, non-specific control miRNA, or siRNA against TS or DHFR in 100 μl of medium. […] To measure viable cells, 10 μl of WST-1 (Roche Applied Science) was added to each well. After 2 hours incubation, absorbance was measured at 450 and 630 nm respectively (n=3). Non-specific control miRNA alone was used as a negative control, and siRNAs incubation with TDX or MTX were used as the positive controls.

[5] = test system: 3′UTR of DHFR; test: pMIR-REPORT dual-luciferase reporter assay; type: cell-based, human; conditions: HCT-116 (wt-p53), 30 hours after transfection, compared to the vector alone
Excerpt: (§1) To confirm whether miR-215 directly targets TS or DHFR, plasmids were constructed containing the fragments of the 3′UTR of TS or DHFR in the downstream region of firefly luciferase. The pMIR-REPORT Luciferase miRNA Expression Reporter Vector (Ambion) was used to determine the targets of miR-215. Double stranded DNA oligonucleotides containing the miR-215 binding sequence (wt-miR-215) or mismatch sequence (mut-miR-215) in 3′UTR of TS or DHFR mRNA and the HindIII and SpeI restriction site overhangs were synthesized (IDT, Coralville, Iowa) and annealed and cloned downstream of firefly luciferase in the pMIR-REPORT plasmid. The sequences of these synthesized oligonucleotides are provided below. The 3′UTR of TS includes two miR-215 binding sites: one is located at 84-104 bp, one is located at 216-236 bp.
(§2) The constructs were transiently transfected into HCT-116 (wt-p53) cells alone (control) or together with miR-215 precursor. […] Thirty hours after transfection, cells were lysated and luciferase activity was measured by the dual-luciferase reporter assay system (Promega, Madison, Wis.) according to the instructions. […]

[6] = test system: 3′UTR of TS; test: pMIR-REPORT dual-luciferase reporter assay; type: cell-based, human; conditions: HCT-116 (wt-p53), 30 hours after transfection, compared to the vector alone
Excerpt: as §1, §2

[7] = test system: DHFR mRNA; test: real time qRT-PCR of DHFR mRNA; type: cell-based; conditions: U-2 OS cells
Procedure: (§6) Expression levels of TS or DHFR mRNA were analyzed using real time qRT-PCR analysis (FIG. 15).

[8] = test system: TS; test: western immunoblot of TS protein after transfection; type: cell-based; conditions: 48 hours after transfection
Procedure: At 48 h after transfection with miR-215, miR-192 precursors or non-specific control miRNA, the cells were scraped and lysed in RIPA buffer (Sigma). Equal amounts of proteins were resolved by SDS-PAGE on 12% gels by the method of Laemmli, and transferred to polyvinylidene fluoride membranes (BIO-RAD Laboratories). The membranes were then blocked by 5% nonfat milk in TBS-T (Tris-buffered saline and 0.5% Tween-20) at room temperature for 1 h. The primary antibodies used for the analysis included mouse anti-TS mAb (1:400, Millipore), mouse anti-DHFR mAb (1:250, BD Bioscience), mouse anti-p53 mAb (1:1000, DO-1), mouse anti-p21 mAb (1:1000, F-5), and mouse anti-α-tubulin mAb (1:1000, TU-02) purchased from Santa Cruz Biotechnology. Horseradish peroxidase—conjugated antibodies against mouse (1:1000, Santa Cruz Biotechnology) were used as the secondary antibodies. Protein bands were visualized with a chemiluminescence detection system using the Super Signal substrate (BIO-RAD).
At 48 hours after transfection, proteins were extracted from miR-215-transfected cells and from control cells and changes in TS or DHFR protein levels were determined by western immunoblot analysis (FIG. 14).

[9] = test system: U-2 OS cells; test: WST-1 cell proliferation after miR-215 transfection; type: cell-based; conditions: day 5, vs non-specific miRNA control
Procedure: (§3) miR-215 inhibits cell proliferation of HCT-116(wt-p53) and U-2 OS cells.
(§4) Cell proliferation assays were performed on the transduced cells. HCT-116 (wt-p53), HCT-116 (null-p53), U-2 OS, and MG63 cells were plated in 96-well plates in triplicate at 1 10^3 cells/well after transfection with miR-215 precursor or non-specific control miRNA. Cells were cultured for 24, 48, 72, 96 h. The absorbance at 450 and 630 nm was measured after incubation with 10 μl of WST-1 for 2 h.

[10] = test system: p21; test: western immunoblot of p21 in HCT-116 (wt-p53) and U-2 OS cells; type: cell-based; conditions: both HCT-116 (wt-p53) and U-2 OS cells, 48 h after transfection
Excerpt: (§5) miR-215 increases the expression of cell cycle control genes p53 and p21. p53 and p21, a downstream target of the p53 pathway of growth control, are reported to block cells at G2 checkpoint mainly through inhibiting activity of Cdc2, the cyclin-dependent kinase that normally drives cells into mitosis, which is the ultimate target of pathways that mediate rapid arrest in G2 in response to DNA damage. To further analyze the mechanism of cell proliferation inhibition by miR-215, we transfected miR-215 precursor into HCT-116 (wt-p53) and U-2 OS cells, and evaluated the levels of cell cycle control genes p53 and p21 by western immunoblot analysis.

[11] = test system: U-2 OS cells; test: cell cycle analysis by flow cytometry; type: cell-based
Procedure: miR-215 induces G2-arrest in HCT-116 (wt-p53) and U-2 OS cells. To investigate the mechanism by which miR-215 suppressed cell proliferation in HCT-116 (wt-p53) and U-2 OS cells, the impact of miR-215 on cell cycle control was analyzed by flow cytometry at 36 h after transfection. HCT-116 (wt-p53), HCT-116 (null-p53), U-2 OS and MG63 cells were transfected with miR-215 precursor and the non-specific control miRNA described as above. At 36 h after transfection, cells were harvested and resuspended at 0.5-1 10^5 cells/ml in modified Krishan buffer containing 0.1% sodium citrate and 0.3% NP-40 and kept at 4° C. Before analysis by flow cytometry, cells were treated with 0.02 mg/ml RNase H and stained with 0.05 mg/ml propidium iodide (Sigma).

[12] = test system: p53; test: western immunoblot of p53 in HCT-116 (wt-p53) and U-2 OS cells; type: cell-based; conditions: both HCT-116 (wt-p53) and U-2 OS cells, 48 h after transfection
Excerpt: as §5

[13] = test system: HCT-116 (wt-p53) cells; test: WST-1 cell proliferation after miR-215 transfection; type: cell-based, human; conditions: day 5, vs non-specific miRNA control
Procedure: as §3, §4

[14] = test system: TS mRNA; test: real time qRT-PCR of TS mRNA; type: cell-based; conditions: U-2 OS cells
Procedure: as §6

activation of luciferase expression from miR-192 promoter p53 binding site [3]: further enhanced
Molecule: O=c1[nH]cc(F)c(=O)[nH]1 [5-fluorouracil]

IC50 ([4]; HCT-116(wt-p53) cells transfected with miR-215, 72 hours): 0.0987 µM
IC50 ([4]; negative control (non-specific control miRNA), 72 hours): 0.0186 µM
IC50 ([4]; positive control (siRNA against TS), 72 hours): 0.0085 µM
Molecule: Cc1nc2ccc(CN(C)c3ccc(C(=O)N[C@@H](CCC(=O)O)C(=O)O)s3)cc2c(=O)[nH]1 [TDX, Ralitrexed]

Continued, molecule first:

Molecule: CN(Cc1cnc2nc(N)nc(N)c2n1)c1ccc(C(=O)N[C@@H](CCC(=O)O)C(=O)O)cc1 [MTX, methotrexate]
expression of endogenous mature miR-192 ([1]; HCT-116 (null-p53)): did not cause any change
expression of endogenous mature miR-192 ([1]; HT-29 (mut-p53)): did not cause any change
expression of endogenous mature miR-192 ([1]; cells with p53 induction (wt-p53), RNU6B normalized): significant increase
IC50 ([2]; read-out: IC50 of MTX, negative control (non-specific control miRNA), 72 hours): 0.0497 µM
IC50 ([2]; read-out: IC50 of MTX, positive control (siRNA against DHFR), 72 hours): 0.0373 µM
cells still alive ([2]; miR-215 transduced U-2 OS cells at 200 nM of MTX): 83.6%

B1: miR-215: microRNA miR-215 (SEQ ID NO:9), transfected as precursor, 72 bps hairpin stem loop processed by DICER (nucleic acid)
chain: AUCAUUCAGAAAUGGUAUACAGGAAAAUGACCUAUGAAUUGACAGACAAUAUAGCUGAGUUUGUCUGUCAUUUCUUUAGGCCAAUAUUCUGUAUGACUGUGCUACUUCAA
modifications: delivered as precursor hairpin, further chemistry not given here
luciferase activity, DHFR 3′UTR construct [5]: significant decrease
luciferase activity, TS 3′UTR construct [6]: significant decrease
DHFR mRNA expression [7]: no reduction
TS protein levels [8]: clearly decreases
reduction in cell proliferation (OD) [9]: ~58%
p21 protein level [10]: significant increase
G2/S ratio ([11]; 36 h after transfection (control 0.35)): 0.72
proportion of cells in the G2-phase ([11]; 36 h after transfection (control 18.50%)): 29.69%
proportion of cells in the S-phase ([11]; 36 h after transfection (control 52.08%)): 41.24%
increase of G2/S ratio ([11]; vs control): > 2 fold
p53 protein level [12]: significant increase
reduction in cell proliferation (OD) [13]: approximately 40%
TS mRNA expression [14]: no reduction

Source: US8927207B2, “miRNAs as therapeutic targets in cancer” (Research Foundation of State University of New York, priority 2008, dated 2015)
